Our source for the protein production values is a protein production outcome set (Wang et al. 2014).

This data set can be described thus: label from the status in PepcDB records.
On to “MSSPLVLPSDGHYWLKNAHIPPNLVKTKVNFPENFQFPRPWEDLGLYHLEIADGKIKNIVAVGQGEESDLVTDDGVPRVDLSKRMILPCFVDMHTHLDKGHIWGRSPNVDGTFSGAIASTERDAELHHSPEDIYRRMEFALQCSYAHGTAAVRTHIEMAGQKSQIAWQTFQQLRQAWADRLTLQGVAMVTTDYYLGSAGEKLADQMAHGGGILGGVAYAGPQVEAQLTRLMTLAQARNLAIDLHVDENGDRRSRVLHQVAAIALKVGFTGQIVCGHCCSLDVQSPQQVQQTLALVKQANIAIISLPLCNLYLQGRHQPQKPAWRGITKVHAIHAEGIPLVFASDNCRDPFFPFGDHDGLEILNQSVRIGQLDPPYGHWCATVNQTPAQLMGLADYGRLAVNGPADLVIFPARYFSEIFSRPQGDRLVIRKGKPTHKKTPHYQELDDLMGA”, for which the protein production entry is “failed”.

In the case of “MLSIGSGKLLIGCVAGLLVLGGATLGLGIGGFADVPADSETTVGEDELEIRAVQTPTEIRPDEPLRVQLRLTNAGSETTTKQVALQLSGDGDQQSLETVATKQVEVSAAEPTNVTLTVEPEQLSSGEYTYAVAVGESSSPETTGSVAVLTPPTFVLDDTTENATIVRGTNVSIRANLTNAGAYRGVQTVRIAVDEDQNGQYTDAERLDESVYSLAGGQSQVSTATAHTTDMEPGRYQYKIATENTTATGTLSVQQPATFRVQNTTAPVNVTKGETANVSVVVKNVGDVDGTDNVTIRSDSLNTTYSRSVSLAANETTTVSIGVNTTNLSSGTHNHSLGTSTDTDPVSMTVQDSHFEVSDLDGPNVLYVGDMAVFSADVTNTGNITGTQSIQHRIDSDDDDRPEAYGVDRNVTLAPGESTRVRFEIDYTVTDSTEYPVEPLRLQTYVHGIYSEDARASTAMSVKPSWAKDGGSSSYSGSTSVSEGDRASLDEITQDKYGRHYDEVSGETKRQVEEIHERQPFADGLAAAEVRTREEIARQEYDADVKAGEKFNFTGLDIETQQKVESDFDAQFETDSGDRIESWDELANDTYETSYENLTTSRQADIRTTYQDQFE”, the protein production result is on record as “failed”. In the case of “MSLVLVDHPRPGVALITLNRPERMNSMAFDVMVPLKEALQKVTYDNAVRVVVLTGAGRGFSSGADHKSAGTVPHVEGLTRPTYALRSMEILDEVILALRRLHQPVIAAVNGPAIGGGLCLALAADIRVASTSAYFRAAGINNGLTASELGLSYLLPRAIGSSRAFEIMLTGRDVTAEEAERIGLVSCQVPEEQLLDTCYAIAARIAAFSRPGIELTKRTLWSGLDAGSLEGHMQAEGLGQLFVRLLTANFEEAVAARAERRPPVFTDDK”, the protein production result is reported as “failed”. The result for “MSLEARVLTGAALEARLDEVARLRIAVFRDWPYLYEGSMDYERSYLSTYRTSPGAILVGAFDGDRLVGASTGTPMEDHAEDFAAAFARTGLPLDEIFYCAESVLLPDYRGHGMGHRFFDLREAHARALGRRHSAFCSVIRPEDHPLRPAAARSNEPFWRKRGYAPLPGVVAHYGWTDVGEERETQKPLQFWIRDL” reads “not failed”; that for “MAETAPLRVQLIAKTDFLAPPDVPWTTDADGGPALVEFAGRACYQSWSKPNPKTATNAGYLRHIIDVGHFSVLEHASVSFYITGISRSCTHELIRHRHFSYSQLSQRYVPEKDSRVVVPPGMEDDADLRHILTEAADAARATYSELLAKLEAKFADQPNAILRRKQARQAARAVLPNATETRIVVTGNYRAWRHFIAMRASEHADVEIRRLAIECLRQLAAVAPAVFADFEVTTLADGTEVATSPLATEALEHHHHHH”, “not failed”.

For “MREAIIKRAAKELKEGMYVNLGIGLPTLVANEVSGMNIVFQSENGLLGIGAYPLEGSVDADLINAGKETITVVPGASFFNSADSFAMIRGGHIDLAILGGMEVSQNGDLANWMIPKKLIKGMGGAMDLVHGAKKVIVIMEHCNKYGESKVKKECSLPLTGKGVVHQLITDLAVFEFSNNAMKLVELQEGVSLDQVKEKTEAEFEVRL”, the protein production entry is given as “failed”. With “MNEFETLLNSVEDVKVRDVVKGEILSVENGQATVAIVGTGVEGVLTLREITNDKDADINTFVKPGDVLDLLVIKQIVGKEAEGANVYLLSLKRLEARKAWTQLEGKEGEIVTVKVTKDVKGGLSVDYNGVRGFIPASMIDTYFVKDTKKFVGEEIEAKIIEVNASENRFILSRRAVVEAEAIEMRKEAFAQLQEGDIVEGTVSRVTNFGAFVDLGGIDGLVHVSELSHSRIKRPSDAVKPGDVVNVKILKLDPEAGRLSLSLKATQPGPWEQVEEKAPVGSTVEGTVKRLTDFGAFVELYPGVEGLVHVSQISWERVENPKDVLKVGQVVNVKVLDVKPAEERISLSIKALEEAPARPARNNDNDGEKRDRKPRAPRKAAKPSYDLPETQEGFSLADFLGEDFDINDLLEHHHHHH” the entry was “not failed”.
